# Data taken from the supplement of paper PMC9112550, “Optimization of the antimicrobial peptide Bac7 by deep mutational scanning” (BMC Biology, 2022).
# Test system: Escherichia coli TOP10
# Test: shrunken log2 fold change of peptide-encoding DNA abundance (4.5 h post-induction vs induction); higher = less antimicrobial activity (less host growth inhibition)
# Details: time post-induction: 4.5 h; library: site-saturation at positions 5, 18, 19, 20
# 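Further: peptides expressed intracellularly from a pBAD plasmid library in pooled LB shake-flask culture, induced with 0.3% L-arabinose, DNA abundance read by NGS, three biological replicates, DESeq2 with apeglm shrinkage.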
row,Sequence,shrunken log2 fold change
1,RRIRCRPPRLPRPRPRPWPRPRP,0.398
2,RRIRNRPPRLPRPRPRPPLQPRP,0.213
3,RRIRGRPPRLPRPRPRPIGDPRP,0.667
4,RRIRKRPPRLPRPRPRPQVWPRP,-0.0233
5,RRIRFRPPRLPRPRPRPEAMPRP,-0.000462
6,RRIRFRPPRLPRPRPRPVCCPRP,-0.0027
7,RRIRNRPPRLPRPRPRPVDIPRP,0.00355
8,RRIRFRPPRLPRPRPRPTGYPRP,0.0801
9,RRIRKRPPRLPRPRPRPIVWPRP,0.527
10,RRIRRRPPRLPRPRPRPQMSPRP,0.0441
11,RRIRNRPPRLPRPRPRPVRSPRP,-0.00792
12,RRIRYRPPRLPRPRPRPNEYPRP,-0.519
13,RRIRIRPPRLPRPRPRPGNSPRP,-1.05
14,RRIRCRPPRLPRPRPRPQGKPRP,-0.145
15,RRIRVRPPRLPRPRPRPDLYPRP,-0.35
16,RRIRVRPPRLPRPRPRPLLEPRP,0.0931
17,RRIRERPPRLPRPRPRPEWGPRP,0.23
18,RRIRCRPPRLPRPRPRPKSVPRP,0.0362
19,RRIRMRPPRLPRPRPRPYHAPRP,-0.387
20,RRIRIRPPRLPRPRPRPVDKPRP,0.0266
21,RRIRLRPPRLPRPRPRPDSIPRP,-0.0883
22,RRIRKRPPRLPRPRPRPFNYPRP,-0.463

row,Sequence,shrunken log2 fold change
1,RRIRERPPRLPRPRPRPSSLPRP,-0.223
2,RRIRPRPPRLPRPRPRPCATPRP,0.132
3,RRIRSRPPRLPRPRPRPKKTPRP,-0.356
4,RRIRCRPPRLPRPRPRPCSQPRP,-0.256
5,RRIRPRPPRLPRPRPRPPDVPRP,0.274
6,RRIRERPPRLPRPRPRPVAHPRP,0.0475
7,RRIRNRPPRLPRPRPRPHNIPRP,-0.54
8,RRIRSRPPRLPRPRPRPWSAPRP,-0.027
9,RRIRTRPPRLPRPRPRPNSLPRP,0.0607
10,RRIRSRPPRLPRPRPRPPCMPRP,0.464
11,RRIRIRPPRLPRPRPRPDRTPRP,-0.0709
12,RRIRQRPPRLPRPRPRPPNAPRP,0.285
13,RRIRMRPPRLPRPRPRPKDDPRP,2.12
14,RRIRPRPPRLPRPRPRPPKIPRP,0.0961
15,RRIRWRPPRLPRPRPRPWDWPRP,0.00466
16,RRIRTRPPRLPRPRPRPPRQPRP,0.52
17,RRIRKRPPRLPRPRPRPQMRPRP,0.292
18,RRIRVRPPRLPRPRPRPDFEPRP,0.0704
19,RRIRYRPPRLPRPRPRPERFPRP,0.0461
20,RRIRARPPRLPRPRPRPTMSPRP,0.159
21,RRIRRRPPRLPRPRPRPDTFPRP,0.025
22,RRIRGRPPRLPRPRPRPMDKPRP,0.378

row,Sequence,shrunken log2 fold change
1,RRIRWRPPRLPRPRPRPVKTPRP,0.00121
2,RRIRHRPPRLPRPRPRPERAPRP,0.305
3,RRIRYRPPRLPRPRPRPATYPRP,-0.113
4,RRIRFRPPRLPRPRPRPFGKPRP,-0.00111
5,RRIRMRPPRLPRPRPRPFRGPRP,-0.205
6,RRIRVRPPRLPRPRPRPEASPRP,0.0108
7,RRIRKRPPRLPRPRPRPVTVPRP,-0.0834
8,RRIRMRPPRLPRPRPRPTDWPRP,1.27
9,RRIRYRPPRLPRPRPRPQPIPRP,-0.397
10,RRIRIRPPRLPRPRPRPNFSPRP,-0.26
11,RRIRPRPPRLPRPRPRPDEFPRP,-0.203
12,RRIRGRPPRLPRPRPRPQMHPRP,0.989
13,RRIRKRPPRLPRPRPRPCAVPRP,2.99
14,RRIRFRPPRLPRPRPRPCLEPRP,-0.489
15,RRIRIRPPRLPRPRPRPMHYPRP,-0.434
16,RRIRRRPPRLPRPRPRPDRCPRP,0.00426
17,RRIRNRPPRLPRPRPRPYPRPRP,0.0154
18,RRIRCRPPRLPRPRPRPPVHPRP,-0.112
19,RRIRVRPPRLPRPRPRPSRFPRP,-0.0691
20,RRIRRRPPRLPRPRPRPSHDPRP,-0.00919
21,RRIRHRPPRLPRPRPRPPCTPRP,0.0262
22,RRIRNRPPRLPRPRPRPVKPPRP,0.0644

row,Sequence,shrunken log2 fold change
1,RRIRNRPPRLPRPRPRPMCCPRP,-0.406
2,RRIRSRPPRLPRPRPRPAVDPRP,0.462
3,RRIRERPPRLPRPRPRPRRGPRP,0.142
4,RRIRPRPPRLPRPRPRPEKNPRP,0.101
5,RRIRFRPPRLPRPRPRPTIAPRP,-0.27
6,RRIRFRPPRLPRPRPRPDFMPRP,-0.27
7,RRIRMRPPRLPRPRPRPIQAPRP,0.295
8,RRIRHRPPRLPRPRPRPAIEPRP,0.0588
9,RRIRCRPPRLPRPRPRPSRQPRP,0.222
10,RRIRRRPPRLPRPRPRPDLRPRP,0.398
11,RRIRRRPPRLPRPRPRPVICPRP,0.164
12,RRIRFRPPRLPRPRPRPFIVPRP,-0.772
13,RRIRGRPPRLPRPRPRPFAHPRP,0.162
14,RRIRHRPPRLPRPRPRPPSYPRP,-0.266
15,RRIRFRPPRLPRPRPRPGQTPRP,0.0249
16,RRIRRRPPRLPRPRPRPIQAPRP,-0.0046
17,RRIRWRPPRLPRPRPRPRNRPRP,-0.0206
18,RRIRCRPPRLPRPRPRPHYSPRP,-0.723
19,RRIRPRPPRLPRPRPRPMRFPRP,0.0813
20,RRIRTRPPRLPRPRPRPGCLPRP,0.172
21,RRIRFRPPRLPRPRPRPTEYPRP,-0.423
22,RRIRMRPPRLPRPRPRPDKDPRP,1.24

row,Sequence,shrunken log2 fold change
1,RRIRFRPPRLPRPRPRPKYQPRP,-0.534
2,RRIRDRPPRLPRPRPRPLNSPRP,0.0283
3,RRIRMRPPRLPRPRPRPALNPRP,0.759
4,RRIRLRPPRLPRPRPRPRFPPRP,-0.0246
5,RRIRWRPPRLPRPRPRPRQSPRP,0.236
6,RRIRPRPPRLPRPRPRPWRFPRP,0.212
7,RRIRIRPPRLPRPRPRPNLHPRP,-0.623
8,RRIRVRPPRLPRPRPRPRNSPRP,0.1
9,RRIRVRPPRLPRPRPRPMCLPRP,-0.0244
10,RRIRGRPPRLPRPRPRPIVKPRP,0.328
11,RRIRYRPPRLPRPRPRPSPLPRP,-0.55
12,RRIRMRPPRLPRPRPRPHSWPRP,0.273
13,RRIRARPPRLPRPRPRPLVMPRP,0.0657
14,RRIRARPPRLPRPRPRPYDYPRP,-0.282
15,RRIRLRPPRLPRPRPRPDQQPRP,-0.174
16,RRIRCRPPRLPRPRPRPTVHPRP,-0.413
17,RRIRSRPPRLPRPRPRPMDFPRP,-0.215
18,RRIRVRPPRLPRPRPRPNSDPRP,-0.429
19,RRIRMRPPRLPRPRPRPDMQPRP,2
20,RRIRGRPPRLPRPRPRPFCAPRP,0.836
21,RRIRVRPPRLPRPRPRPGIVPRP,0.106
